In this assay the target is TAG-72 antigen (tumor-associated glycoprotein 72) (human). Description: competition RIA against 125I-labeled CC49 IgG (competitor), TAG-72 in a human breast carcinoma extract.

Take “CC49/212 single-chain antigen-binding protein (monomer) (scFv)”: the fold higher protein concentration needed to displace the labeled CC49 IgG (against unlabeled CC49 IgG and bivalent CC49/212) is 10 fold.

The values above are taken from US20060063715A1.
